Results: patent US20240116985A1 (published 2024)
Starred links: 1 amine or outer side, 2 acyl side, 3 side chain; linkers in the order of their positions; H or OH if unused. Positions of bridges follow the written chain, without caps; N, C: chain ends. Non-standard residues stand in square brackets, D forms with d. Primed or numbered codes have the meaning given here. PyrS2″ = (S)-3-amino-1-((pent-4-en-1-yloxy)carbonyl)pyrrolidine-3-carboxylic acid (stapling residue), C=CCCCOC(=O)N1CC[C@@](N[*:1])(C(=O)[*:2])C1; RdN″ = (R)-4-(((allyloxy)carbonyl)(methyl)amino)-2-amino-2-methylbutanoic acid (stapling residue), C=CCOC(=O)N(C)CC[C@@](C)(N[*:1])C(=O)[*:2]; ReN = (R)-5-(((allyloxy)carbonyl)(methyl)amino)-2-amino-2-methylpentanoic acid, stapling residue, C=CCOC(=O)N(C)CCC[C@@](C)(N[*:1])C(=O)[*:2]; PyrS(3) = (S)-1-((allyloxy)carbonyl)-3-aminopyrrolidine-3-carboxylic acid, stapling residue, C=CCOC(=O)N1CC[C@@](N[*:1])(C(=O)[*:2])C1; PyrS″ = (S)-1-((allyloxy)carbonyl)-3-aminopyrrolidine-3-carboxylic acid (stapling residue), C=CCOC(=O)N1CC[C@@](N[*:1])(C(=O)[*:2])C1; SeN = (S)-5-(((allyloxy)carbonyl)(methyl)amino)-2-amino-2-methylpentanoic acid, C=CCOC(=O)N(C)CCC[C@](C)(N[*:1])C(=O)[*:2]; RdN = (R)-4-(((allyloxy)carbonyl)(methyl)amino)-2-amino-2-methylbutanoic acid, C=CCOC(=O)N(C)CC[C@@](C)(N[*:1])C(=O)[*:2]; PyrS = (S)-1-((allyloxy)carbonyl)-3-aminopyrrolidine-3-carboxylic acid, C=CCOC(=O)N1CC[C@@](N[*:1])(C(=O)[*:2])C1; B5(3) = 2,2-bis(4-pentenyl)glycine (stitching residue), C=CCCCC(CCCC=C)(N[*:1])C(=O)[*:2]; R6 = (R)-2-amino-2-methyloct-7-enoic acid, C=CCCCC[C@@](C)(N[*:1])C(=O)[*:2]; Phe(4-COOH) = N[C@@H](Cc1ccc(C(=O)O)cc1)C(=O)O; S7 = C[C@@](CCCCCC=[*:3])(N[*:1])C(=O)[*:2]; Bip = N[C@@H](Cc1ccc(-c2ccccc2)cc1)C(=O)O; Phe(2-Cl) = N[C@@H](Cc1ccccc1Cl)C(=O)O; Bta = N[C@@H](Cc1csc2ccccc12)C(=O)O; αAllylPro = C=CC[C@@]1(C(=O)O)CCCN1; tBuAla = CC(C)(C)C[C@H](N)C(=O)O; 3Pal = N[C@@H](Cc1cccnc1)C(=O)O; R8 = C=CCCCCCC[C@@](C)(N)C(=O)O; Aad = N[C@@H](CCCC(=O)O)C(=O)O; Cha = N[C@@H](CC1CCCCC1)C(=O)O; Thr(ol) = C[C@@H](O)[C@H](N)CO; R5 = C=CCCC[C@@](C)(N)C(=O)O; hLeu = CC(C)CC[C@H](N)C(=O)O; S5 = C=CCCC[C@](C)(N)C(=O)O; Nle = CCCC[C@H](N)C(=O)O

Assays:
[1] = molecular target: T1, full-length beta-Catenin (Uniprot ID P35222) (Homo sapiens (Human), UniProt P35222 2-781); assay: AlphaScreen competition vs biotin-TCF4(10-53) on full-length beta-catenin
T1 construct: The assay text says 'full-length'; also called B-Catenin; bCat
T1 sequence: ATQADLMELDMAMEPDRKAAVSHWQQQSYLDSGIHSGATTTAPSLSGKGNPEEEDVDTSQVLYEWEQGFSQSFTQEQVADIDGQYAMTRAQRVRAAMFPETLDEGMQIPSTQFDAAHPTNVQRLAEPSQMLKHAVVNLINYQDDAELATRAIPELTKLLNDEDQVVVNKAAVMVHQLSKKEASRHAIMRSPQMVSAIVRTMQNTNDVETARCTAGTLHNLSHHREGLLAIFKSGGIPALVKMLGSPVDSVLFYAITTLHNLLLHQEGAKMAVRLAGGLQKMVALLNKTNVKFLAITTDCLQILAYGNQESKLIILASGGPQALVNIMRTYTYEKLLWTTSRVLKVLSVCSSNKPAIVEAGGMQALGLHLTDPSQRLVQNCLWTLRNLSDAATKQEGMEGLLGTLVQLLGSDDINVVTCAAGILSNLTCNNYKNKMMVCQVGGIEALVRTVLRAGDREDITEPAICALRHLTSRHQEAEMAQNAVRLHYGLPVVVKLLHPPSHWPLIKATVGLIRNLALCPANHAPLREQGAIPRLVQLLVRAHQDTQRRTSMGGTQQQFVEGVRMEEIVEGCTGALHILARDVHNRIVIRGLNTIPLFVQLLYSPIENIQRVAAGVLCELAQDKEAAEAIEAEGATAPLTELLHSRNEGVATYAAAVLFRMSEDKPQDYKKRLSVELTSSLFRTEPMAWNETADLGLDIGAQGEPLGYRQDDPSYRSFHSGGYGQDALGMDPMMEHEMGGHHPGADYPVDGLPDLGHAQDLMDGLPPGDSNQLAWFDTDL
Method: Equal volume of the titrated peptide was added to the plate and incubated for 15 minutes at 20° C. Then 4 uL of donor and 4 uL acceptor beads at 10 ug/mL were added to the plate, for a 16 uL reaction pool and protected from light for 60 minutes at 20° C. prior to read. Reads were performed on a CLARIOstar plate reader (BMG Labtech) in duplicate, and data were fitted to a 1:1 binding model with hill slope using an in-house script. All provided concentrations are final concentrations.

beta-catenin = molecular target: T2, beta-catenin (Homo sapiens (Human), UniProt P35222 2-781); assay: cell-based or functional assay
T2 sequence: T1 sequence

## Ac-FDA[R5]DDAAFV[SeN]FWQ-NH2 (staple 4-11, Stapled peptide composition) [I-25]
[1]
  EC50: 7.22 µM

## Ac-FDA[R8]D[hLeu]AAFV[PyrS]FWQ-NH2 (staple 4-11, Stapled peptide composition) [I-17]
[1]
  EC50: ≥ 10 µM

## Ac-FDA[R8]D[Bip]AAFV[PyrS(3)]FWQ-NH2 (staple 4-11, Stapled peptide composition) [I-12]
[1]
  EC50: ≥ 10 µM

## Ac-FDA[RdN]DDAAFV[S7]FWQ-NH2 (staple 4-11; also: later-eluting isomer of same sequence as I-1, Stapled peptide composition) [I-2]
[1]
  EC50: ≥ 10 µM

## Ac-FDA[R8]DDA[Aad]FV[PyrS″]FWQ-NH2 (staple 4-11; also: earlier-eluting HPLC peak, Stapled peptide composition) [I-23]
[1]
  EC50: 9.22 µM

B1: I-16 (peptide)
peptide: Ac-FDA[R8]D[Cha]AAFV[PyrS]FWQ-NH2
modifications: staple 4-11; not fully specified; printed as Ac-Phe-Asp-Ala-R8-Asp-Cha-Ala-Ala-Phe-Val-PyrS-Phe-Trp-Gln-NH2
notes: Stapled peptide composition
[1]
  EC50: ≥ 10 µM

## Ac-[αAllylPro]D[tBuAla][B5(3)]DDAAFN[PyrS2″][Phe(2-Cl)][Bta][Thr(ol)] (staple 1-4, 4-11) [I-1082]
beta-catenin
  DLD1 TCF c2 BrightGlo % Inhibition (TCF/LEF luciferase reporter; 0.625 uM by plate map, replicate 1): 14.1%
  DLD1 TCF c2 BrightGlo % Inhibition (TCF/LEF luciferase reporter; 0.625 uM by plate map, replicate 2): 17.4%
  DLD1 TCF c2 BrightGlo % Inhibition (TCF/LEF luciferase reporter; 0.625 uM by plate map, replicate 3): 20.3%
  DLD1 TCF c2 BrightGlo % Inhibition (TCF/LEF luciferase reporter; 1.25 uM by plate map, replicate 1): 14%
  DLD1 TCF c2 BrightGlo % Inhibition (TCF/LEF luciferase reporter; 1.25 uM by plate map, replicate 2): 21.5%
  DLD1 TCF c2 BrightGlo % Inhibition (TCF/LEF luciferase reporter; 1.25 uM by plate map, replicate 3): 24%
  DLD1 TCF c2 BrightGlo % Inhibition (TCF/LEF luciferase reporter; 2.5 uM by plate map, replicate 1): 17.3%
  DLD1 TCF c2 BrightGlo % Inhibition (TCF/LEF luciferase reporter; 2.5 uM by plate map, replicate 2): 36.1%
  DLD1 TCF c2 BrightGlo % Inhibition (TCF/LEF luciferase reporter; 2.5 uM by plate map, replicate 3): 37.9%
  DLD1 TCF c2 BrightGlo % Inhibition (TCF/LEF luciferase reporter; 5 uM by plate map, replicate 1): 38.5%
  DLD1 TCF c2 BrightGlo % Inhibition (TCF/LEF luciferase reporter; 5 uM by plate map, replicate 2): 56.2%
  DLD1 TCF c2 BrightGlo % Inhibition (TCF/LEF luciferase reporter; 5 uM by plate map, replicate 3): 62%
  DLD1 TCF c2 BrightGlo % Inhibition (TCF/LEF luciferase reporter; 10 uM by plate map, replicate 1): 63.9%
  DLD1 TCF c2 BrightGlo % Inhibition (TCF/LEF luciferase reporter; 10 uM by plate map, replicate 2): 71%
  DLD1 TCF c2 BrightGlo % Inhibition (TCF/LEF luciferase reporter; 10 uM by plate map, replicate 3): 75%
  DLD1 TCF c2 BrightGlo % Inhibition (TCF/LEF luciferase reporter; 20 uM by plate map, replicate 1): 76.5%
  DLD1 TCF c2 BrightGlo % Inhibition (TCF/LEF luciferase reporter; 20 uM by plate map, replicate 2): 77.1%
  DLD1 TCF c2 BrightGlo % Inhibition (TCF/LEF luciferase reporter; 20 uM by plate map, replicate 3): 79.9%

## Ac-FDA[RdN″]DDAAFV[S7]FWQ-NH2 (staple 4-11, Stapled peptide composition) [I-1]
[1]
  EC50: ≥ 10 µM

B2: I-20 (peptide)
peptide: Ac-FDA[R8]DDADFV[PyrS]FWQ-NH2
modifications: staple 4-11; not fully specified; printed as Ac-Phe-Asp-Ala-R8-Asp-Asp-Ala-Asp-Phe-Val-PyrS-Phe-Trp-Gln-NH2
notes: Stapled peptide composition
[1]
  EC50: ≥ 10 µM

## Ac-FDA[R8]DEAAFV[PyrS″]FWQ-NH2 (staple 4-11, Stapled peptide composition) [I-3]
[1]
  EC50: 9.13 µM

B3: I-19 (peptide)
peptide: Ac-FDA[R8]DDADFV[PyrS]FWQ-NH2
modifications: staple 4-11; not fully specified; printed as Ac-Phe-Asp-Ala-R8-Asp-Asp-Ala-Asp-Phe-Val-PyrS-Phe-Trp-Gln-NH2
notes: Stapled peptide composition
[1]
  EC50: ≥ 10 µM

B4: I-4 (peptide)
peptide: Ac-FDA[R8]DEAAFV[PyrS″]FWQ-NH2
modifications: staple 4-11; not fully specified; printed as Ac-Phe-Asp-Ala-R8-Asp-Glu-Ala-Ala-Phe-Val-PyrS-Phe-Trp-Gln-NH2
notes: Stapled peptide composition
[1]
  EC50: 5.89 µM

B5: I-21 (peptide)
peptide: Ac-FDA[R8]DDAEFV[PyrS]FWQ-NH2
modifications: staple 4-11; not fully specified; printed as Ac-Phe-Asp-Ala-R8-Asp-Asp-Ala-Glu-Phe-Val-PyrS-Phe-Trp-Gln-NH2
notes: Stapled peptide composition
[1]
  EC50: ≥ 10 µM

## Ac-FDA[R8]DDAEFV[PyrS]FWQ-NH2 (staple 4-11; also: later-eluting HPLC isomer peak, Stapled peptide composition) [I-22]
[1]
  EC50: ≥ 10 µM

B6: I-11 (peptide)
peptide: Ac-FDA[R8]D[Bip]AAFV[PyrS″]FWQ-NH2
modifications: staple 4-11; not fully specified; printed as Ac-Phe-Asp-Ala-R8-Asp-Bip-Ala-Ala-Phe-Val-PyrS-Phe-Trp-Gln-NH2
notes: Stapled peptide composition
[1]
  EC50: ≥ 10 µM

## Ac-FDA[R8]D[3Pal]AAFV[PyrS″]FWQ-NH2 (staple 4-11, Stapled peptide composition) [I-10]
[1]
  EC50: ≥ 10 µM

## Ac-FDA[R8]D[Phe(4-COOH)]AAFV[PyrS″]FWQ-NH2 (staple 4-11, Stapled peptide composition) [I-8]
[1]
  EC50: ≥ 10 µM

## Ac-FDA[R8]D[Aad]AAFV[PyrS]FWQ-NH2 (staple 4-11, Stapled peptide composition) [I-6]
[1]
  EC50: 6.5 µM

## Ac-FDA[R8]D[3Pal]AAFV[PyrS″]FWQ-NH2 (staple 4-11, Stapled peptide composition) [I-9]
[1]
  EC50: ≥ 10 µM

## Ac-FDA[R8]D[Nle]AAFV[PyrS]FWQ-NH2 (staple 4-11, Stapled peptide composition) [I-13]
[1]
  EC50: ≥ 10 µM

B7: I-18 (peptide)
peptide: Ac-FDA[R8]D[hLeu]AAFV[PyrS]FWQ-NH2
modifications: staple 4-11; not fully specified; printed as Ac-Phe-Asp-Ala-R8-Asp-hLeu-Ala-Ala-Phe-Val-PyrS-Phe-Trp-Gln-NH2
notes: Stapled peptide composition
[1]
  EC50: ≥ 10 µM

## Ac-FDA[R6]DDAAFV[SeN]FWQ-NH2 (staple 4-11, Stapled peptide composition) [I-26]
[1]
  EC50: 8.11 µM

## Ac-FDA[R8]D[Phe(4-COOH)]AAFV[PyrS″]FWQ-NH2 (staple 4-11, Stapled peptide composition) [I-7]
[1]
  EC50: ≥ 10 µM

B8: I-24 (peptide)
peptide: Ac-FDA[R8]DDA[Aad]FV[PyrS]FWQ-NH2
modifications: staple 4-11; not fully specified; printed as Ac-Phe-Asp-Ala-R8-Asp-Asp-Ala-Aad-Phe-Val-PyrS-Phe-Trp-Gln-NH2
notes: Stapled peptide composition
[1]
  EC50: 8.57 µM

B9: I-14 (peptide)
peptide: Ac-FDA[R8]D[Nle]AAFV[PyrS]FWQ-NH2
modifications: staple 4-11; not fully specified; printed as Ac-Phe-Asp-Ala-R8-Asp-nLeu-Ala-Ala-Phe-Val-PyrS-Phe-Trp-Gln-NH2
notes: Stapled peptide composition
[1]
  EC50: 9.76 µM

## Ac-FDA[ReN]DDAAFV[S5]FWQ-NH2 (staple 4-11, Stapled peptide composition) [I-27]
[1]
  EC50: 6.82 µM

B10: I-15 (peptide)
peptide: Ac-FDA[R8]D[Cha]AAFV[PyrS]FWQ-NH2
modifications: staple 4-11; not fully specified; printed as Ac-Phe-Asp-Ala-R8-Asp-Cha-Ala-Ala-Phe-Val-PyrS-Phe-Trp-Gln-NH2
notes: Stapled peptide composition
[1]
  EC50: ≥ 10 µM

## Ac-FDA[R8]D[Aad]AAFV[PyrS(3)]FWQ-NH2 (staple 4-11; also: earlier-eluting HPLC isomer, E/Z not given here, Stapled peptide composition) [I-5]
[1]
  EC50: ≥ 10 µM
